“Also recorded” adds a separate entry of the source.
Columns and labels:
[1] = test system: mp53/Ras transformed cells and CAPAN-2 cells; assay: Immunoblot of p62 and LC3 in cells expressing autophagy modulators; type: cell-based; conditions: cells expressing the protein vs vector control
Description: Thus, the effects of Plac8 KD on both tumor formation and autophagy can be suppressed by constitutive activation of Rab7.
(§1) Moreover, the molecular machinery employed in autophagosomal/lysosomal fusion, such as Rab7, is required for endosomal/lysosomal fusion, which is also required for tumor formation in some cancers.
To determine if the Plac8 KD-induced loss of tumor formation is specifically due to a loss of autophagy completion, Atg12, a gene required for autophagosomal formation, was overexpressed in Plac8 KD cells.
YAMC, vector, mp53, Ras, and mp53/Ras cells were cultured for two days at 39 C in RPMI with 10% FBS medium and gentamicin in collagen-I coated 15 cm dishes. HT-29, CAPAN-2, PANC-1 and Panc 10.05 cells were cultured for two days at 37 C in maintenance media without selective antibiotics on 15 cm dishes. […] Protein concentration was quantified using Bradford reagent (BioRad) and a Genesys 1 0UV spectrophotometer (Spectronic Unicam). […]

[2] = test system: mp53/Ras transformed cells and CAPAN-2 cells; assay: Immunocompromised mouse tumorigenicity assay, cells expressing autophagy modulators; type: in vivo; conditions: cells expressing the protein or shRNA vs vector control, 5×10^5 cells per injection, 4 weeks mp53/Ras, 5 weeks CAPAN-2
Procedure: To determine whether cooperative up-regulation of autophagy is required for tumorigenesis Atg12, a gene involved in autophagosome formation, was knocked-down using two independent constructs in mp53/RasV12 and Capan-2 cells. In addition, a genetic rescue experiment was performed by introducing a shRNA resistant form of ATG12 into these cell backgrounds to test for ATG12 specificity of the observed effects. Tumor formation was inhibited by Atg12 KD in both mp53/Ras and CAPAN-2 cell lines and was rescued by expression of the exogenous shRNA resistant Atg12 (FIG. 4.5a, 4.5c).
Cells were cultured on 15 cm dishes for two days without selective antibiotics at 39 C for mp53/Ras cells and at 37 C for HT-29, CAPAN-2, PANC-1, and 5 Panc10.05. Cells were plated at the following densities: mp53/Ras—7.5×10^5, HT-29 —1.5×10^6, CAPAN-2 —4×10^6, PANC—4×10^6, and PANC 10.05—2×10^6. Cells were trypsinized, counted and re-suspended in RPMI medium lacking supplements for mp53/Ras, CAPAN-2, and Panc10.05, and DMEM lacking supplements for HT-29 and PANC-1 at a density of 5×10^5/100 ul for mp53/Ras and CAPAN-2 cells, 1.25×10^5/100 ul for HT-29 cells, 5×10^6/100 ul for PANC-1, 2×10^6/100 ul for Panc10.05. Matrigel (BD biosciences) was mixed with PANC-1 and Panc10.05 cell/medium mixture at a 1:1 ratio. Cell mixtures were then injected intra-dermally, bilaterally into the flanks of CD1-Foxn1 nude mice (Uracell) […]) in the following numbers: mp53/Ras cells, HT29 1.25×10^5 cells, 5×10^5 CAPAN-2-cells. Cell mixtures were injected intradermally, bilaterally into the flanks of NOD/SCID (UCAR-20060-166 (1)) mice in the following cell numbers per injection: PANC-1 —2.5×10^6 cells and Panc10.05 —1×10^6 cells. Tumor volume was measured every week for 4 weeks for mp53/Ras and HT-29 cells, 5 weeks for CAPAN-2 cells, and 6 weeks for PANC-1.

[3] = test system: mp53/Ras transformed and CAPAN-2 cells; assay: Endocytosis of fluorescently labeled dextran; type: cell-based; conditions: 50 uM Alexa-488 dextran for 1 hr; confocal microscopy and FACS
Procedure: as §1
Cells were plated at 2.5×10^5 cells for vector and Rab5a DN mp53/Ras cells on collagen-I coated 10 cm dishes, and 7.5×10^5 cells for vector and Rab5a DN CAPAN-2 cells on 10 cm dishes and allowed to proliferate for two days in maintenance media. Cells were then treated with 50 uM of Alexa-488 labeled 10,000 MW dextran (Invitrogen) for 1 hr in maintenance medium. The cells were then washed 3× with PBS and trypsinized. Cells were pelleted, resuspended in PBS with 1% BSA, transferred to FACS tubes (Falcon), and placed on ice. DAPI was added to a final concentration of […] and cells were FACS analyzed for Alexa-488 signal, with DAPI exclusion of dead cells. To image cells mp53/Ras and CAPAN-2 cells infected with vector control virus or stabily expressing Rab5a DN were plated onto glass coverslips as described in the immunofluorescent staining of cells section. Cells were then treated with 50 uM of Alexa-488 labeled 10,000 MW dextran for 1 hr in maintenance medium. The media containing dextran was removed and the cells were washed 3 times with PBS. […]

Molecule | p62 and LC3 protein levels [1] | tumor formation in nude mice [2] | endocytosis of Alexa488 labeled dextran [3] | tumor formation in nude mice ([2]; listed as DN Rab5a)
Atg12: over-expressed 3× Flag-tagged Atg12, a gene required for autophagosomal formation (protein, UniProt O94817 1-140, looked up, 3x Flag tag, over-expressed 3× Flag-tagged Atg12, a gene required for autophagosomal formation) Ubiquitin-like protein ATG12: MAEEPQSVLQLPTSIAAGGEGLTDVSPETTTPEPPSSAAVSPGTEEPAGDTKKKIDILLKAVGDTPIMKTKKWAVERTRTIQGLIDFIKKFLKLVASEQLFIYVNQSFAPSPDQEVGTLYECFGSDGKLVLHYCKSQAWG | p62 and LC3 protein levels were suppressed | tumor inhibitory; also recorded: inhibits tumor formation |  | 
Rab5a DN: 3× Flag-tagged Rab5a S34N dominant negative mutant, inhibitor of endocytosis (protein, UniProt P20339 1-215, looked up, variant S34N, 3x Flag tag) Ras-related protein Rab-5A: MASRGATRPNGPNTGNKICQFKLVLLGESAVGKNSLVLRFVKGQFHEFQESTIGAAFLTQTVCLDDTTVKFEIWDTAGQERYHSLAPMYYRGAQAAIVVYDITNEESFARAKNWVKELQRQASPNIVIALSGNKADLANKRAVDFQEAQSYADDNSLLFMETSAKTSMNVNEIFMAIAKKLPKNEPQNPGANSARGRGVDLTEPTQPTRNQCCSN | no effect on p62 or LC3 levels | increased tumor size over vector control | inhibits endocytosis of Alexa488 labeled dextran | slightly enhanced tumor formation in transformed YAMC cells and no effect on Capan-2 cells
